{
  "source": "paper PMC6274716",
  "binders": {"B1": {"name": "Akt1-pT308 peptide (peptide)", "peptide": "Biotin-KDGATMK[pT]FCGTPEY-NH2", "modifications": "not fully specified (residue 12)"}},
  "assay_in_all_cases": "ELISA; competition: FHA clone binding to immobilized phosphorylated Akt1 peptide in the presence of free phosphorylated peptide; IC50",
  "key": {"[1]": {"target": "FHA variant E1 (yeast)"}, "[2]": {"target": "FHA variant H11 (yeast)"}, "[3]": {"target": "FHA variant E12 (Akt1-pTBD) (yeast)"}, "[4]": {"target": "FHA variant B3 (yeast)"}},
  "note": "Non-standard residues stand in square brackets, D forms with d. *: point of attachment. Biotin = O=C1N[C@H]2[C@H](CS[C@H]2CCCCC(=O)*)N1; pT = C[C@@H](OP(=O)(O)O)[C@H](N)C(=O)O",
  "data": [
    {"binder": "B1", "values": [
      {"measurement": "IC50", "setting": "[1]", "value": 1950, "unit": "nM"},
      {"measurement": "IC50", "setting": "[2]", "value": 90, "unit": "nM"},
      {"measurement": "IC50", "setting": "[3]", "value": 45, "unit": "nM"},
      {"measurement": "IC50", "setting": "[4]", "value": 100, "unit": "µM"}
    ]}
  ]
}
